Nine substances from patent US20120282643A1 can be followed below.

This test addresses sulfite reductase tagged with a C-terminal GFP S11 (SEQ ID NO: 16). As to the kind of experiment: cell-based or functional assay.

The substance “Split-CFP plate clone F6 (D19E, D21E, H148D, T205S) (from UniProt P42212 1-214)” gave a Final Fluorescence (Ident. F6) of 2910 and an Initial Rate (Ident. F6) of 10900.

Take “Split-YFP S1-10 (T203Y, Q204E) (from UniProt P42212 1-214)”: the Green Fluorescence (488/510) (clone C6) worked out at 5.1, the Ratio Yellow/Green Fluorescence (clone C6) was found to be 20 and the Yellow Fluorescence (510/532) (clone C6) came to 102.

“Split-CFP S1-10 (D21E, Y66W, H148D, T205S) (from UniProt P42212 1-214)” returned a Final Fluorescence (Ident. G4) of 5100 and an Initial Rate (Ident. G4) of 13000.

In turn, “Split-CFP S1-10 (Y66W, T205S) (from UniProt P42212 1-214)” gave a Final Fluorescence (Ident. G12) of 382, a Final Fluorescence (Ident. H12) of 425, an Initial Rate (Ident. G12) of 3740 and an Initial Rate (Ident. H12) of 3600.

Substance “Split-CFP S1-10 (D21N, Y66W, T205S) (from UniProt P42212 1-214)” displayed a Final Fluorescence (Ident. F12) of 868 and an Initial Rate (Ident. F12) of 1980.

In turn, “Split-CFP S1-10 (V16I, D19E, D21E, Y66W, H148D, T205S)” returned a Final Fluorescence (Ident. B8) of 1640, a Final Fluorescence (Ident. B10) of 3340, a Final Fluorescence (Ident. D2) of 3360 and an Initial Rate (Ident. B8) of 8930. Further, the Initial Rate (Ident. B10) stood at 11500 and the Initial Rate (Ident. D2) amounted to 11500.

Substance “Split-YFP S1-10 (T203Y) (from UniProt P42212 1-214)” had a Green Fluorescence (488/510) (clone A6) of 7.74, a Green Fluorescence (488/510) (clone A8) of 8.54, a Green Fluorescence (488/510) (clone B3) of 13.9 and a Green Fluorescence (488/510) (clone B4) of 16. This substance also returned a Green Fluorescence (488/510) (clone B6) of 8.08, a Green Fluorescence (488/510) (clone B10) of 16.1, a Green Fluorescence (488/510) (clone C9) of 17.5 and a Green Fluorescence (488/510) (clone D1) of 16.4. Moreover, the Green Fluorescence (488/510) (clone D2) was 18.5, the Green Fluorescence (488/510) (clone D5) is 17.8, the Green Fluorescence (488/510) (clone D7) was 17.4 and the Green Fluorescence (488/510) (clone D9) amounted to 21. Further, the Green Fluorescence (488/510) (clone D10) is 18.2, the Green Fluorescence (488/510) (clone D11) was found to be 17.1, the Green Fluorescence (488/510) (clone E1) was 12.3 and the Green Fluorescence (488/510) (clone E3) amounted to 17.9. The substance further returned a Green Fluorescence (488/510) (clone E4) of 17.4, a Green Fluorescence (488/510) (clone E6) of 15.4, a Green Fluorescence (488/510) (clone E8) of 22.9 and a Green Fluorescence (488/510) (clone E9) of 23.9. This substance gave a Green Fluorescence (488/510) (clone F1) of 15.8, a Green Fluorescence (488/510) (clone F6) of 11.5, a Green Fluorescence (488/510) (clone F7) of 17.7 and a Green Fluorescence (488/510) (clone F9) of 21.4. Also, the Green Fluorescence (488/510) (clone F10) amounted to 8.11, the Green Fluorescence (488/510) (clone F11) is 19, the Green Fluorescence (488/510) (clone G9) came out at 18.6 and the Green Fluorescence (488/510) (clone G10) is 17. For the same substance, the Green Fluorescence (488/510) (clone H4) is 9.39, the Green Fluorescence (488/510) (clone H5) was 8.77, the Green Fluorescence (488/510) (clone H9) turned out to be 12.4 and the Green Fluorescence (488/510) (clone H10) is 13.1. In addition, the Ratio Yellow/Green Fluorescence (clone A6) was 18.9, the Ratio Yellow/Green Fluorescence (clone A8) came to 17.5, the Ratio Yellow/Green Fluorescence (clone B3) was 10.5 and the Ratio Yellow/Green Fluorescence (clone B4) was found to be 9.71. Moreover, the Ratio Yellow/Green Fluorescence (clone B6) stood at 13.7, the Ratio Yellow/Green Fluorescence (clone B10) came out at 10.2, the Ratio Yellow/Green Fluorescence (clone C9) is 9.2 and the Ratio Yellow/Green Fluorescence (clone D1) stood at 9.41. For the same substance, the Ratio Yellow/Green Fluorescence (clone D2) was determined as 8.3, the Ratio Yellow/Green Fluorescence (clone D5) was found to be 8.66, the Ratio Yellow/Green Fluorescence (clone D7) stood at 8.97 and the Ratio Yellow/Green Fluorescence (clone D9) is 7.45. The Ratio Yellow/Green Fluorescence (clone D10) was 7.74, the Ratio Yellow/Green Fluorescence (clone D11) stood at 8.31, the Ratio Yellow/Green Fluorescence (clone E1) amounted to 11.3 and the Ratio Yellow/Green Fluorescence (clone E3) worked out at 8.45. Further, the Ratio Yellow/Green Fluorescence (clone E4) is 8.79, the Ratio Yellow/Green Fluorescence (clone E6) is 10.1, the Ratio Yellow/Green Fluorescence (clone E8) was determined as 7.21 and the Ratio Yellow/Green Fluorescence (clone E9) was 6.93. The Ratio Yellow/Green Fluorescence (clone F1) turned out to be 10.1, the Ratio Yellow/Green Fluorescence (clone F6) came to 12.6, the Ratio Yellow/Green Fluorescence (clone F7) worked out at 9.1 and the Ratio Yellow/Green Fluorescence (clone F9) turned out to be 7.71. Further, the Ratio Yellow/Green Fluorescence (clone F10) is 14.3, the Ratio Yellow/Green Fluorescence (clone F11) stood at 8.74, the Ratio Yellow/Green Fluorescence (clone G9) turned out to be 9.14 and the Ratio Yellow/Green Fluorescence (clone G10) amounted to 9.91. Further, the Ratio Yellow/Green Fluorescence (clone H4) was 16.6, the Ratio Yellow/Green Fluorescence (clone H5) was 18.4, the Ratio Yellow/Green Fluorescence (clone H9) worked out at 13.5 and the Ratio Yellow/Green Fluorescence (clone H10) is 13.3. Moreover, the Yellow Fluorescence (510/532) (clone A6) came out at 146, the Yellow Fluorescence (510/532) (clone A8) came to 150, the Yellow Fluorescence (510/532) (clone B3) worked out at 146 and the Yellow Fluorescence (510/532) (clone B4) turned out to be 155. The substance further came in with a Yellow Fluorescence (510/532) (clone B6) of 111, a Yellow Fluorescence (510/532) (clone B10) of 165, a Yellow Fluorescence (510/532) (clone C9) of 161 and a Yellow Fluorescence (510/532) (clone D1) of 154. The same substance displayed a Yellow Fluorescence (510/532) (clone D2) of 154, a Yellow Fluorescence (510/532) (clone D5) of 154, a Yellow Fluorescence (510/532) (clone D7) of 156 and a Yellow Fluorescence (510/532) (clone D9) of 156. The Yellow Fluorescence (510/532) (clone D10) was 141, the Yellow Fluorescence (510/532) (clone D11) turned out to be 143, the Yellow Fluorescence (510/532) (clone E1) is 139 and the Yellow Fluorescence (510/532) (clone E3) was found to be 151. Further, the Yellow Fluorescence (510/532) (clone E4) came to 153, the Yellow Fluorescence (510/532) (clone E6) came to 155, the Yellow Fluorescence (510/532) (clone E8) was 165 and the Yellow Fluorescence (510/532) (clone E9) was 165. The substance also yielded a Yellow Fluorescence (510/532) (clone F1) of 159, a Yellow Fluorescence (510/532) (clone F6) of 144, a Yellow Fluorescence (510/532) (clone F7) of 161 and a Yellow Fluorescence (510/532) (clone F9) of 165. The substance further returned a Yellow Fluorescence (510/532) (clone F10) of 116, a Yellow Fluorescence (510/532) (clone F11) of 166, a Yellow Fluorescence (510/532) (clone G9) of 170 and a Yellow Fluorescence (510/532) (clone G10) of 168. Besides, the Yellow Fluorescence (510/532) (clone H4) was 156, the Yellow Fluorescence (510/532) (clone H5) amounted to 161, the Yellow Fluorescence (510/532) (clone H9) stood at 168 and the Yellow Fluorescence (510/532) (clone H10) was determined as 175.

Consider “Split-YFP S1-10 (T65G, P192H, T203Y, T205S) (from UniProt P42212 1-214)”, for which the Green Fluorescence (488/510) (clone D3) was 7.15, the Ratio Yellow/Green Fluorescence (clone D3) turned out to be 17.9 and the Yellow Fluorescence (510/532) (clone D3) came out at 128.

Take “Split-YFP S1-10 (T203Y, Q204H) (from UniProt P42212 1-214)”: the Green Fluorescence (488/510) (clone F8) is 20.2, the Ratio Yellow/Green Fluorescence (clone F8) came out at 8.16 and the Yellow Fluorescence (510/532) (clone F8) worked out at 165.
